{"source": "patent US20040053278A1", "key": {"[1]": {"target": "constitutively active (TD) TβR-I (UniProt P36897)", "sequence (P36897 34-503 T204D limits assumed)": "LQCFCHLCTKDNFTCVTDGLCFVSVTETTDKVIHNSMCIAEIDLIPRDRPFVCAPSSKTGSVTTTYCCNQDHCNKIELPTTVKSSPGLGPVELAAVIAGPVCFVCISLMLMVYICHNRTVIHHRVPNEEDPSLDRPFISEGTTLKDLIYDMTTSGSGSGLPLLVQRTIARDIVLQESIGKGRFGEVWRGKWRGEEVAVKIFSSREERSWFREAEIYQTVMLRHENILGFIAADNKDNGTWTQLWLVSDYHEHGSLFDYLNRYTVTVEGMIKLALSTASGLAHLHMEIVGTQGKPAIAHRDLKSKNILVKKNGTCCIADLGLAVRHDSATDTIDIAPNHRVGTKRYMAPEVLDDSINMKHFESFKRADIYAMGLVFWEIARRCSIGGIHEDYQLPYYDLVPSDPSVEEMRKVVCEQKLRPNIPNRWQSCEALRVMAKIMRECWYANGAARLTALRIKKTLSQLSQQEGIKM", "experiment": "cell-based or functional assay"}, "[2]": {"target": "constitutively active BMPR-IB", "experiment": "cell-based or functional assay"}}}
{"substance": "Myc-Smad6 (from UniProt O35182 1-495)", "values": [{"measurement": "Phosphorylation of Smad2 induced by constitutively active TβR-I ([32P]orthophosphate labeling, immunoprecipitation)", "setting": "[1]", "value": 39, "unit": "% reduction"}, {"measurement": "Smad1 phosphorylation induced by constitutively active BMPR-IB", "setting": "[2]", "value": 60, "unit": "% reduction"}]}
